The results in this text go back to article PMC6242908.

The target in the first series is MBP-KRIPP11-His6 (Trypanosoma brucei) (UniProt Q57YK5). Put plainly: fluorescence anisotropy. As to conditions: DNA; FA: 20 mM Tris-HCl pH 7.5, 150 mM KCl, 5 mM MgCl2, 1 mM DTT, 20 nM RNA/DNA, 25 C; EMSA: same buffer with BSA and RNAsin, 150 nM RNA/DNA, 2% tris-glycine ….
Sequence GGGGGGGGGGGG [dG12] displayed a Kd of 1.88 µM.

Staying with this series, now noted: FA: 20 mM Tris-HCl pH 7.5, 150 mM KCl, 5 mM MgCl2, 1 mM DTT, 20 nM RNA/DNA, 25 C; EMSA: same buffer with BSA and RNAsin, 150 nM RNA/DNA, 2% tris-glycine ….
With GGGG [G4 RNA], the Kd turned out to be 3.42 µM.

For GGGGCCUUUAAA [G4C2U3A3], the Kd is 2.21 µM.

GGUGGUGGUGGU [(GGU)4] gave an equilibrium dissociation constant (Kd) of 6.55 µM.

As for GGGGGGGGGGGG [G12 RNA (native)], the equilibrium dissociation constant (Kd) was determined as 0.66 µM.

Turning to GGGGGGGGG [G9 RNA], the dissociation constant (Kd) turned out to be 1.87 µM.

As for GGGGGGCCUUAA [G6C2U2A2], the Kd is 0.93 µM.

With GGGGGG [G6 RNA], the Kd was determined as 1.07 µM.

As usually defined, the Kd is the free concentration of one partner at which half of the binding sites on the other are occupied at equilibrium, for simple one-to-one binding. A low value points to higher affinity.
